Data taken from US20170334950.
Where a chain is given by its changes, count along the chain named. Names may count otherwise.

B1: recombinant FLT3-D835Y mutant kinase (protein)
chain: HKYKKQFRYESQLQMVQVTGSSDNEYFYVDFREYEYDLKWEFPRENLEFGKVLGSGAFGKVMNATAYGISKTGVSIQVAVKMLKEKADSSEREALMSELKMMTQLGSHENIVNLLGACTLSGPIYLIFEYCCYGDLLNYLRSKREKFHRTWTEIFKEHNFSFYPTFQSHPNSSMPGSREVQIHPDSDQISGLHGNSFHSEDEIEYENQKRLEEEEDLNVLTFEDLLCFAYQVAKGMEFLEFKSCVHRDLAARNVLVTHGKVVKICDFGLARYIMSDSNYVVRGNARLPVKWMAPESLFEGIYTIKSDVWSYGILLWEIFSLGVNPYPGIPVDANFYKLIQNGFKMDQPFYATEEIYIIMQSCWAFDSRKRPSFPNLTSFLGCQLADAEEAMYQNVDGRVSECPHTYQNRRPFSREMDLGLLSPQAQVEDS
B2: recombinant wild type FLT3 kinase (FLT3-WT) (protein)
chain: B1 chain with Y272D

Columns and labels:
[1] = target: FLT3 Artificial Substrate (FAS) candidate sequence H
[2] = target: FLT3 Artificial Substrate (FAS) candidate sequence C
[3] = target: FLT3 Artificial Substrate (FAS) candidate sequence F
[4] = target: FLT3 Artificial Substrate (FAS) candidate sequence G
[5] = target: FLT3 Artificial Substrate (FAS) candidate sequence A
[6] = target: FLT3 Artificial Substrate (FAS) candidate sequence E
[7] = target: FLT3 Artificial Substrate (FAS) candidate sequence B
[8] = target: FLT3 Artificial Substrate (FAS) candidate sequence D

Row | Protein | phosphorylation, in vitro kinase assay [1] | phosphorylation, in vitro kinase assay [2] | phosphorylation, in vitro kinase assay [3] | phosphorylation, in vitro kinase assay [4] | phosphorylation, in vitro kinase assay [5] | phosphorylation, in vitro kinase assay [6] | phosphorylation, in vitro kinase assay [7] | phosphorylation, in vitro kinase assay, 60-minute incubation [5] | phosphorylation, in vitro kinase assay [8]
1 | B1 | sequence H showed no phosphorylation | Candidate sequences A, B, C displayed higher levels of phosphorylation by FLT3-D835Y compared to FL-Abltide | Sequences E, F and G were also phosphorylated by FLT3-D835Y but at lower levels than FL-Abltide | Sequences E, F and G were also phosphorylated by FLT3-D835Y but at lower levels than FL-Abltide | Candidate sequences A, B, C displayed higher levels of phosphorylation by FLT3-D835Y compared to FL-Abltide | Sequences E, F and G were also phosphorylated by FLT3-D835Y but at lower levels than FL-Abltide | Candidate sequences A, B, C displayed higher levels of phosphorylation by FLT3-D835Y compared to FL-Abltide |  | 
2 | B2 | The remaining sequences did not get phosphorylated by FLT3-WT |  | The remaining sequences did not get phosphorylated by FLT3-WT | The remaining sequences did not get phosphorylated by FLT3-WT |  | The remaining sequences did not get phosphorylated by FLT3-WT | The remaining sequences did not get phosphorylated by FLT3-WT | Sequence A showed a similar level of phosphorylation compared to Abltide over a 60-minute incubation | The remaining sequences did not get phosphorylated by FLT3-WT
